Common to all, as to conditions: both partners purified
The target of test [1] is T1, Clb2-Cdk1 complex, wild-type Clb2 (S. cerevisiae, UniProt P24869 187-491; P00546 1-298, phosphothreonine at 169 (by Cak1)).
T1 construct: Clb2 of S. cerevisiae, aa 187-491; Cdk1 (Cdc28) of S. cerevisiae, made as a GST-TEV-Cdk1 fusion; formed before Cks1 was added; also called wild-type Clb2-Cdk1; active Clb2-Cdk1; source: assembled from purified Clb2 (E. coli) and purified Cak1-phosphorylated Cdk1 (Sf9), desalted
The test is described as follows: reconstitution of an active kinase complex by mixing; Clb2-Cdk1 combined with equimolar Cks1; no separate test of association.

The target of test [2] is T2, Clb2-Cdk1 complex, Clb2-pp mutant (S. cerevisiae, UniProt P24869 187-491; P00546 1-298, R366A | R379A | K383A, phosphothreonine at 169 (by Cak1)).
T2 construct: Clb2 of S. cerevisiae, aa 187-491, phosphate-pocket mutant; Cdk1 (Cdc28) of S. cerevisiae, made as a GST-TEV-Cdk1 fusion; formed before Cks1 was added; also called clb2-pp Clb2-Cdk1; PP mutant Clb2-Cdk1; source: assembled from purified Clb2-pp (E. coli) and purified Cak1-phosphorylated Cdk1 (Sf9), desalted
Described as above.

Test [3] has as its target T3, Clb2 (aa 187-491), wild-type (S. cerevisiae, UniProt P24869 187-491).
T3 construct: Clb2, major mitotic B-type cyclin of S. cerevisiae, aa 187-491; also called wild-type Clb2; source: E. coli BL21(DE3) Star, pET28, purified (Ni-NTA, S200 gel filtration)
T3 sequence (looked up): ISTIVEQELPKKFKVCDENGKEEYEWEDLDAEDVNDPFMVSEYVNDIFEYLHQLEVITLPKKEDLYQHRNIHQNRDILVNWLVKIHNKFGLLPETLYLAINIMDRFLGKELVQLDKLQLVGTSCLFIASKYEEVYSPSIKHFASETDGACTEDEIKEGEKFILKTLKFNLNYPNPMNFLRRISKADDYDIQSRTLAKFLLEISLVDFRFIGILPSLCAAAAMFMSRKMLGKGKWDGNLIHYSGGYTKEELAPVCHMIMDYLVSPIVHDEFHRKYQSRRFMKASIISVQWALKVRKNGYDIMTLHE
In words: reconstitution of an active kinase complex by mixing; 10.5 uM Cak1-phosphorylated Cdk1 and 10.5 uM Clb2, on ice 60 min, then desalted; the complex is known by its kinase activity only.

The target in test [4] is T4, Clb2-pp mutant (R366A, R379A, K383A), aa 187-491 (S. cerevisiae, UniProt P24869 187-491, R366A | R379A | K383A).
T4 construct: also called PP mutant Clb2; source: E. coli BL21(DE3) Star, pET28, purified (Ni-NTA, S200 gel filtration)
T4 sequence (looked up): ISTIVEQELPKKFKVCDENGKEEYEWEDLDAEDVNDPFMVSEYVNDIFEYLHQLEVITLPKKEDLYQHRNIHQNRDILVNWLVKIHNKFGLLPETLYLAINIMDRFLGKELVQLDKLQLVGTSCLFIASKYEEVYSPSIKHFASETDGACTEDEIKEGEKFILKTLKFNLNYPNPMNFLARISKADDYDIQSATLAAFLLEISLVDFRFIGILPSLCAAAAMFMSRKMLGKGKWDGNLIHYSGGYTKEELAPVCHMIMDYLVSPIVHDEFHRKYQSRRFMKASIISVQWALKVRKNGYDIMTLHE
The description is as above.

T1 sequence (P00546 whole entry, the tested form may be a part, one chain of several): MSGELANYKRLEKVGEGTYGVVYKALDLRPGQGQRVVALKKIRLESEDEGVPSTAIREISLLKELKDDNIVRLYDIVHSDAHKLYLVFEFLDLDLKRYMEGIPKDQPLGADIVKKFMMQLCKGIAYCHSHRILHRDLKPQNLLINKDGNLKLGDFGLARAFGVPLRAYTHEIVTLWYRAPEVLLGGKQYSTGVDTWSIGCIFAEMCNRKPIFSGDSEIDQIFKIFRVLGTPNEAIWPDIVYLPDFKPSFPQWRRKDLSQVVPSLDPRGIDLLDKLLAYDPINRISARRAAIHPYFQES
T2 sequence (P00546 whole entry, stated change not applied, the tested form may be a part, one chain of several): as the sequence (P00546 whole entry, the tested form may be a part, one chain of several) above

B1: Cks1, wild-type (natural protein, S. cerevisiae, UniProt P20486 1-150, looked up)
chain: MYHHYHAFQGRKLTDQERARVLEFQDSIHYSPRYSDDNYEYRHVMLPKAMLKVIPSDYFNSEVGTLRILTEDEWRGLGITQSLGWEHYECHAPEPHILLFKRPLNYEAELRAATAAAQQQQQQQQQQQQQQQQHQTQSISNDMQVPPQIS
notes: Cks1 of S. cerevisiae; also called wild-type Cks1; source: E. coli BL21(DE3) Star, purified (boiling, ammonium sulfate, S200 gel filtration)
Turning to B1, the binding result in test [1] and in test [2] was “binds” each time.

B2: Cks1 mutant (R33E, S82E, R102A) (natural protein, S. cerevisiae, UniProt P20486 1-150, looked up)
chain: MYHHYHAFQGRKLTDQERARVLEFQDSIHYSPEYSDDNYEYRHVMLPKAMLKVIPSDYFNSEVGTLRILTEDEWRGLGITQELGWEHYECHAPEPHILLFKAPLNYEAELRAATAAAQQQQQQQQQQQQQQQQHQTQSISNDMQVPPQIS
notes: also called mutant Cks1; source: E. coli BL21(DE3) Star, purified (boiling, ammonium sulfate, S200 gel filtration)
With B2, the binding result in test [1] and in test [2] was “binds” throughout.

B3: Cdk1 (Cdc28), T169-phosphorylated (enzyme)
chain: not shown
modifications: phosphothreonine at 169 (by Cak1)
notes: Cdk1 (Cdc28) of S. cerevisiae, made as a GST-TEV-Cdk1 fusion; no TEV cleavage is described; the pooled fractions are called GST-Cdk1; also called GST-Cdk1; phosphorylated Cdk1; source: Sf9, baculovirus, purified (Glutathione Sepharose, S200 gel filtration); phosphorylated with purified Cak1
Regarding B3, the binding result in test [3] and in test [4] was “binds” throughout.

(Values after article PMC12062237, “Phosphate-binding pocket on cyclin B governs CDK substrate phosphorylation and mitotic timing” (Nature Communications, 2025).)
